Reference: publication PMC10426277

Target: Peroxiredoxin 4 wildtype, recombinant full-length (human) (UniProt Q13162)
Assay: SPR

Sulfiredoxin (Srx), recombinant full-length, sequence (Q9BYN0 whole entry): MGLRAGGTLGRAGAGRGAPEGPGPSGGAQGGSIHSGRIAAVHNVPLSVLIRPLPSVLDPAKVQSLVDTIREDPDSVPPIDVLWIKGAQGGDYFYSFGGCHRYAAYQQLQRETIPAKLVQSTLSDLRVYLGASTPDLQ

Sulfiredoxin (Srx), recombinant full-length (from UniProt Q9BYN0 1-137) (enzyme)
Kd: 3.26 mM
koff: 0.00166 s⁻¹
kon: 0.509 M⁻¹ s⁻¹
